In the assay the target is mouse FXII^HC5 (mouse). Description: native MS; buffer-exchanged into 1 M ammonium acetate pH 7.0, electrospray, Bruker maXis qTOF, native-favouring source conditions.

A word on the stoichiometry N: it is the number of molecules, sites or subunits per partner or assembly. mouse FXII^HC5 (domain or fragment) showed a stoichiometry N of 2.

For the origin of these results see paper PMC12216678.
